Experiments:
[1] = system: sexually mature cynomolgus monkeys; assay: 6-month repeat-dose toxicology study; type: in vivo, cynomolgus monkey
Protocol: Reversibility was observed within 18 weeks after cessation of treatment. Systemic exposure (AUC) with a 3 mg per kg per dose in monkeys was approximately 60% of the AUC in patients at the recommended dose.
Most ziv-aflibercept-related findings were noted from the lowest dose tested (3 mg per kg per dose) correlating to 60% of the AUC at the human recommended dose.

[2] = system: patients with various cancers; assay: Immunogenicity, anti-product antibody (APA) across 15 studies; type: in vivo, human
Excerpt: As with all therapeutic proteins, there is a potential for immunogenicity. In patients with various cancers across 15 studies, 1.4% (41/2862) of patients tested positive for anti-product antibody (APA) at baseline. […] Among patients who tested positive for APA and had sufficient samples for further testing, neutralizing antibodies were detected in 17 of 48 ziv-aflibercept-treated patients and in 2 of 40 patients receiving placebo.
Immunogenicity data are highly dependent on the sensitivity and specificity of the assay. Additionally, the observed incidence of antibody positivity in an assay may be influenced by several factors, including sample handling, timing of sample collection, concomitant medications, and underlying disease. For these reasons, comparison of the incidence of antibodies to ZALTRAP with the incidence of antibodies to other products may be misleading.

[3] = system: xenotransplanted colon tumors; assay: Xenotransplanted colon tumor growth; type: in vivo; conditions: mice
Excerpt: (§1) This inhibition can result in decreased neovascularization and decreased vascular permeability.

[4] = system: patients with metastatic colorectal cancer (MCRC)
Excerpt: Each randomized patient was to be treated until disease progression, death, or unacceptable toxicity.
Treatment arms were evenly balanced for demographics, disease characteristics and prior anti-cancer treatments, including prior exposition to bevacizumab.
Patients received a median of 9 cycles of ZALTRAP/FOLFIRI or 8 cycles of placebo/FOLFIRI.

pregnant rabbits = assay: Embryo-fetal toxicity study; type: in vivo, rabbit; conditions: every 3 days during organogenesis, intravenous, all doses tested
Excerpt: Adverse embryo-fetal effects included increased incidences of postimplantation losses and external (including anasarca, umbilical hernia, diaphragmatic hernia and gastroschisis, cleft palate, ectrodactyly, and atresia), visceral (in the heart, great vessels, and arteries), and skeletal fetal malformations (including fused vertebrae, sternebrae, and ribs; supernumerary arches and ribs, and incomplete ossification). […] The incidence and severity of fetal anomalies increased with increasing dose.

[5] = system: patients with metastatic colorectal cancer (MCRC); assay: EFC10262 (VELOUR) randomized double-blind phase 3 study: efficacy (OS, PFS, response rate);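 note: Placebo-controlled comparison, both arms on FOLFIRI every 2 weeks until progression or intolerable toxicity, in patients progressing on or within 6 months after oxaliplatin-based combination chemotherapy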
Excerpt: Each randomized patient was to be treated until disease progression, death, or unacceptable toxicity. […] The predefined statistical significance level for this final analysis was 0.0466 after adjusting the type I error spent for the two interim analyses using the O'Brien-Fleming spending function.
The study included one formal interim analysis, planned for the purpose of efficacy, when 561 death events (65% information time) had occurred. Upon request of the independent Data Monitoring Committee (DMC), an additional interim analysis of OS was performed to provide an early evaluation of the benefit-risk ratio, when 315 death events (36.5% information fraction) had occurred.
A total of approximately 863 deaths were required to detect 20% hazard rate reduction in OS with 90% power using the two-sided log rank test at an overall 0.0499 alpha level. The median survival times was expected to be 11 months for the control group. The overall alpha level was split between overall survival (0.0499) and progression-free survival as a secondary efficacy endpoint (0.0001).
Approximately 1200 patients (i.e. 600 patients per treatment group) were planned to be randomized. Treatment assignment was stratified according to prior therapy with bevacizumab (yes or no), and ECOG performance status (PS) (0 vs 1 vs 2).
The enrolment started in November 2007 and was completed in March 2010. A total of 1226 patients were randomized. […] Treatment arms were evenly balanced for demographics, disease characteristics and prior anti-cancer treatments, including prior exposition to bevacizumab.
Immediately after, patients received irinotecan, 5-FU and leucovorin (FOLFIRI regimen). This treatment was repeated every 2 weeks.
Study 1 was a randomized, double-blind, placebo-controlled study in patients with metastatic colorectal cancer (mCRC) who are resistant to or have progressed during or within 6 months of receiving oxaliplatin-based combination chemotherapy, with or without prior bevacizumab. A total of 1226 patients were randomized (1:1) to receive either ZALTRAP (N=612; 4 mg per kg as a 1 hour intravenous infusion on day 1) or placebo (N=614), in combination with 5-fluorouracil plus irinotecan [FOLFIRI: irinotecan 180 mg per m2 IV infusion over 90 minutes and leucovorin (dl racemic) 400 mg per m^2 intravenous infusion over 2 hours at the same time on day 1 using a Y-line, followed by 5-FU 400 mg per m^2 intravenous bolus, followed by 5-FU 2400 mg per m^2 continuous intravenous infusion over 46-hours]. The treatment cycles on both arms were repeated every 2 weeks. Patients were treated until disease progression or unacceptable toxicity. The primary efficacy endpoint was overall survival. Treatment assignment was stratified by the ECOG performance status (0 versus 1 versus 2) and according to prior therapy with bevacizumab (yes or no).

[6] = system: colorectal, pancreatic, and lung cancer populations; assay: Three Phase 3 placebo-controlled clinical studies, GI perforation; type: in vivo, human; conditions: across three Phase 3 placebo-controlled studies
Excerpt: Gastrointestinal (GI) perforation including fatal GI perforation can occur in patients receiving ZALTRAP. Across three Phase 3 placebo-controlled clinical studies (colorectal, pancreatic, and lung cancer populations), the incidence of GI perforation (all grades) was 0.8% for patients treated with ZALTRAP and 0.3% for patients treated with placebo. Grade 3-4 GI perforation events occurred in 0.8% of patients treated with ZALTRAP and 0.2% of patients treated with placebo.

[7] = system: patients with solid tumors; assay: Cardiac electrophysiology, QTc study; type: in vivo, human; conditions: 6 mg/kg intravenous every three weeks; 87 patients; large = greater than 20 ms
Protocol: The effect of 6 mg/kg intravenous ZALTRAP every three weeks on QTc interval was evaluated in 87 patients with solid tumors in a randomized, placebo-controlled study. […] However, a small increase in the mean QTc interval (i.e., less than 10 ms) cannot be excluded due to limitations of the study design.

[8] = system: previously treated patients with metastatic colorectal cancer; conditions: pre-treated patients with MCRC; cited from earlier work
patients with cancer = assay: Pooled safety across completed studies (RPLS, TMA); type: in vivo, human
Excerpt: Severe proteinuria, nephrotic syndrome, and thrombotic microangiopathy (TMA) occurred more frequently in patients treated with ZALTRAP. In patients with mCRC, proteinuria was reported in 62% patients treated with ZALTRAP/FOLFIRI compared to 41% patients treated with placebo/FOLFIRI. Grade 3-4 proteinuria occurred in 8% of patients treated with ZALTRAP/FOLFIRI to 1% of patients treated with placebo/FOLFIRI [see Adverse Reactions (6.1)]. Nephrotic syndrome occurred in 2 patients (0.5%) treated with ZALTRAP/FOLFIRI compared to none of the patients treated with placebo/FOLFIRI. TMA was reported in 3 of 2258 patients with cancer enrolled across completed studies.
RPLS (also known as posterior reversible encephalopathy syndrome) was reported in 0.5% of 3795 patients treated with ZALTRAP monotherapy or in combination with chemotherapy.

rabbits = assay: Excisional and incisional skin wound healing models; type: in vivo, rabbit; conditions: for wound healing: repeated administration
[9] = system: sexually immature cynomolgus monkeys; assay: 3-month intravenous toxicology study; type: in vivo, cynomolgus monkey; conditions: after a post-dosing recovery period
endothelial cells = assay: Endothelial cell proliferation in animals; type: in vivo
Excerpt: as §1

[10] = Clinical pharmacokinetics, plasma free ziv-aflibercept by ELISA; type: in vivo, human
human VEGF-B = molecular target: T1, human VEGF-B (Homo sapiens, UniProt P49765); assay: Binding, equilibrium dissociation constant
T1 sequence (P49765 31-129 limits assumed): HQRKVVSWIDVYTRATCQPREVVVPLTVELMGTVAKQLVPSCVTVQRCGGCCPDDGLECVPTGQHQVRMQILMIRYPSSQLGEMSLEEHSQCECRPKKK
Excerpt: as §1

human PIGF-2 = molecular target: T2, human PIGF-2 (Homo sapiens, UniProt P49763); assay: Binding, equilibrium dissociation constant
T2 sequence (P49763 19-170 isoform P49763-3 limits assumed): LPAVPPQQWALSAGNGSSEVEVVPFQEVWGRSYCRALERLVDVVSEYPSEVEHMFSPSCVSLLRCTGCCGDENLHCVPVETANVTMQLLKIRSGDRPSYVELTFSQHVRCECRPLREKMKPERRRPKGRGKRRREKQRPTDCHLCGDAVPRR
Excerpt: as §1

[11] = system: non-small cell lung cancer (NSCLC); conditions: added to docetaxel vs docetaxel plus placebo; cited from earlier work
[12] = Population pharmacokinetic analysis; type: in vivo, human
Excerpt: There are no data available for patients with severe hepatic impairment.
There is no data available for patients with severe hepatic impairment (total bilirubin>3×ULN and any SGOT/AST).

[13] = includes death due to disease progression

Substance: ziv-aflibercept: recombinant fusion protein of VEGF-binding portions of human VEGF Receptors 1 and 2 fused to the Fc portion of human IgG1 (SEQ ID NO:1)
- reproductive function and fertility ([1]; all doses tested including 3 mg per kg): impaired reproductive function and fertility
- reversibility of reproductive findings after cessation of treatment ([1]; monkeys): ≤ 18 weeks
- repeat-dose toxicity findings ([1]; weekly/every two weeks intravenous for up to 6 months, from 3 mg per kg per dose): changes in the bone
- neutralizing antibodies detected ([2]; among APA-positive patients with sufficient samples): 17 of 48
- incidence of APA development ([2]; intravenous, 53/1687 patients): 3.1%
- mean free ziv-aflibercept trough concentrations in patients with positive neutralizing antibodies ([2]; versus the overall population): lower
- growth of xenotransplanted colon tumors [3]: inhibited the growth
- Grade 3 GI fistula formation ([4]; 2 patients): 0.3%
- Patients with any TEAE leading to death ([4]; Safety population N = 611): 37 (6.1%) number (%) of patients
- dose reduced and/or omitted ([4]; Study 1): 17 % of patients
- occurrence of grade 3-4 treatment emergent adverse events ([4]; in vivo): 83.5%
- premature treatment discontinuation due to adverse events ([4]; in vivo): 19.5%
- rate of permanent discontinuation of study treatment due to adverse events ([4]; in vivo): 26.8%
- patients with adverse events that led to death after 30 days of last dosing [4, 13]: 12
- patients with adverse events that led to death within 30 days of last dosing [4, 13]: 28
- embryo-fetal toxicity (pregnant rabbits): produced embryo-fetal toxicity
- embryo-fetal toxicity (pregnant rabbits; listed as ZALTRAP): embryotoxic and teratogenic
- estimated probability of being alive ([5]; 12 months from randomization): 56.1%
- estimated probability of being alive ([5]; 18 months from randomization): 38.5%
- Median overall survival (95.34% CI) ([5]; ITT population, all patients, cutoff 7 FEB. 2011): 13.50 months
- Median PFS (99.99% CI) ([5]; ITT population, all patients, tumor assessment by the IRC, cutoff 6 MAY 2010): 6.90 months
- Overall Response: Responders (Complete response or Partial response), % ([5]; by IRC, evaluable patient population N = 531): 19.8%
- reduction of risk of death ([5]; compared to placebo, from hazard ratio): 18.3%
- PFS HR (99.99% CI) ([5]; liver metastasis only group): 0.547
- PFS HR (99.99% CI) ([5]; no liver metastasis, or other metastases group): 0.839
- Grade 3-4 GI perforation events [6]: 0.8%
- incidence of GI perforation (all grades) [6]: 0.8%
- change in the mean QT interval from baseline (Fridericia correction) [7]: No large changes in the mean QT interval
- tolerability [8]: well tolerated
- RPLS (posterior reversible encephalopathy syndrome) (patients with cancer; 3795 patients, monotherapy or in combination with chemotherapy): 0.5%
- thrombotic microangiopathy (TMA) (patients with cancer; patients with cancer enrolled across completed studies): 3 of 2258
- full-thickness excisional and incisional skin wound model findings (rabbits; rabbit, in vivo): reduced fibrous response, neovascularization, epidermal hyperplasia/re-epithelialization, and tensile strength
- wound healing (rabbits): delay in wound healing
- wound healing (rabbits; listed as ZALTRAP): impairs wound healing
- reversibility of skeletal and nasal cavity effects [9]: not reversible
- proliferation of endothelial cells (endothelial cells): inhibit the proliferation of endothelial cells
- dose linearity of free ziv-aflibercept concentrations ([10]; dose range of 2-9 mg/kg): linear pharmacokinetics
- Steady state concentrations of free ziv-aflibercept reached ([10]; human, in vivo): by the second dose
- Kd (human VEGF-B): 0.00192 nM
- Kd (human PIGF-2): 0.039 nM
- primary endpoint of improvement in overall survival [11]: did not meet the pre-specified criteria
- increase in systemic exposure in patients weighing >=100 kg ([12]; compared to patients weighing 50 to 100 kg): 29%
- pharmacokinetic drug-drug interactions with irinotecan/SN-38 or 5-FU ([12]; cross-study comparisons and population pharmacokinetic analyses): No clinically important pharmacokinetic drug-drug interactions
- exposure in patients with mild and moderate hepatic impairment vs normal hepatic function ([12]; data from 1507 patients): similar
- exposure in patients with mild, moderate, and severe renal impairment vs normal renal function ([12]; data from 1507 patients): similar
- effect of age, race, and gender on the exposure of free ziv-aflibercept ([12]; in vivo): did not have a clinically important effect
